Measurements as given in patent publication US20020028202A1 (Biogen, published 2002).

Key:
Assay in all cases: staining of transfected COS-7 cells, FACS
[1] = target: T1, human gc chain mutant, SDN replaced by Ala (Domain 1 Loop CC), myc-tagged, on COS-7 cells (human, UniProt P31785 23-369)
T1 construct: whole, on cells; not shown: 9 amino acid myc tag at the 5' end of the construct
T1 sequence (looked up): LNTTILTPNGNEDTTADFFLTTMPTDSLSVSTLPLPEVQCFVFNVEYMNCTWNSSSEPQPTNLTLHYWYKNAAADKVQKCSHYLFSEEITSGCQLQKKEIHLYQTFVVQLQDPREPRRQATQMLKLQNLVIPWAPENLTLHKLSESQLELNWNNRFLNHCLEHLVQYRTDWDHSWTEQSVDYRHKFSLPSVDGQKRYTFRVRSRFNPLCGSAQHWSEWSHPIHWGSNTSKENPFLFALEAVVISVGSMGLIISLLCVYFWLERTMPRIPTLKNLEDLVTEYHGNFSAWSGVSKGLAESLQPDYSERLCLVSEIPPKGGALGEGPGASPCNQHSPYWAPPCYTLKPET
Protocol: (§1) COS-7 cells are transiently transfected with 20 ug of DNA encoding the gc chain mutant or wildtype cDNA and 180 ug of herring sperm carrier DNA. After 2-3 days, COS-7 cells are harvested and analyzed by immnunofluorescent staining with anti-gc chain mAbs. MAbs are used at 10 ug/ml in PBS-1% BSA-0.02% sodium azide and allowed 30 minutes to bind to 1×10⁶ COS-7 cells. Cells are then washed 2 times, and bound mAb is detected with PE-conjugated goat anti-mouse Fc specific antibodies. The % of positive cells staining with the anti-gc chain mAb over an irrelevant control Ig is determined for a given gc chain mutant and for wildtype gc chain. […] Data are adjusted for any differences in level of expression of a mutant vs. wildtype constructs by measuring the binding of a mAb specific for a 9 amino acid myc tag engineered at the 5′ end of each gc chain construct. […] Values reduced from 100% indicate amino acid mutations which affect mAb binding.
(§2) The value “100%” indicates no effect of mutation and lower percentages indicate greater losses in binding as a result of the sequence change.

[2] = target: T2, human gc chain mutant, KEI replaced by Ala (Domain 1 Loop EF), myc-tagged, on COS-7 cells (human, UniProt P31785 23-369)
T2 construct: whole, on cells; not shown: 9 amino acid myc tag at the 5' end of the construct
T2 sequence (looked up): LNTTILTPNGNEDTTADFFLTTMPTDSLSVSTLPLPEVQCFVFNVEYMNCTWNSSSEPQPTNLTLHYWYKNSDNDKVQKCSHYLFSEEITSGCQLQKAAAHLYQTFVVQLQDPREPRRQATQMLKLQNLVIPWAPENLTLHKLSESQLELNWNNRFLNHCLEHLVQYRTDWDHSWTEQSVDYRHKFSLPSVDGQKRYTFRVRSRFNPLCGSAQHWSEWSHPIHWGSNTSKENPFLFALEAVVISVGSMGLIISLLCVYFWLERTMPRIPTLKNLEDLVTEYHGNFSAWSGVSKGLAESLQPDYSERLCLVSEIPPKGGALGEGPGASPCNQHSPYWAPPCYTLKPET
Protocol: as §1, §2

[3] = target: T3, human gc chain mutant, LQN replaced by Ala (interdomain residues), myc-tagged, on COS-7 cells (human, UniProt P31785 23-369)
T3 construct: whole, on cells; not shown: 9 amino acid myc tag at the 5' end of the construct
T3 sequence (looked up): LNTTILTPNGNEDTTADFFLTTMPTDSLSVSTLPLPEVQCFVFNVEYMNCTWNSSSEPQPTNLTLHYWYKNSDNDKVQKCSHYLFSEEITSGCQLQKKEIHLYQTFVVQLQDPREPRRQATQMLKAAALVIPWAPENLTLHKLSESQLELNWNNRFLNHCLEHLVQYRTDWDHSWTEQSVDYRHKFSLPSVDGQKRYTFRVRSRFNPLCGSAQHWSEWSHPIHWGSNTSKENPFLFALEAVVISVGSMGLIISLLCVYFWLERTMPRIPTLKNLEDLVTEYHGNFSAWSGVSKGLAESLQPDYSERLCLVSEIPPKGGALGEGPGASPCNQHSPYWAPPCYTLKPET
Protocol: as §1, §2

[4] = target: T4, human gc chain mutant, ESQ replaced by Ala (Domain 2 Loop AB), myc-tagged, on COS-7 cells (human, UniProt P31785 23-369)
T4 construct: whole, on cells; not shown: 9 amino acid myc tag at the 5' end of the construct
T4 sequence (looked up): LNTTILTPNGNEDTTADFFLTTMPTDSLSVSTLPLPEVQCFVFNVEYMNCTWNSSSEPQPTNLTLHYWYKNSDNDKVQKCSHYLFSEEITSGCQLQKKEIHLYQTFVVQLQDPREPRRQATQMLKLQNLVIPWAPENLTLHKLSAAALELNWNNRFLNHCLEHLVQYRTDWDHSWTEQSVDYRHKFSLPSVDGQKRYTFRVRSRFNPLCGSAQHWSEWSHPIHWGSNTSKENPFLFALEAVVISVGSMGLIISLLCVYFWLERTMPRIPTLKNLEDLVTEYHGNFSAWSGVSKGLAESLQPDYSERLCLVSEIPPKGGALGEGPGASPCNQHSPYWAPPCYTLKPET
Protocol: as §1, §2

[5] = target: T5, human gc chain mutant, LEH replaced by Ala (Domain 2 Loop BC), myc-tagged, on COS-7 cells (human, UniProt P31785 23-369)
T5 construct: whole, on cells; not shown: 9 amino acid myc tag at the 5' end of the construct
T5 sequence (looked up): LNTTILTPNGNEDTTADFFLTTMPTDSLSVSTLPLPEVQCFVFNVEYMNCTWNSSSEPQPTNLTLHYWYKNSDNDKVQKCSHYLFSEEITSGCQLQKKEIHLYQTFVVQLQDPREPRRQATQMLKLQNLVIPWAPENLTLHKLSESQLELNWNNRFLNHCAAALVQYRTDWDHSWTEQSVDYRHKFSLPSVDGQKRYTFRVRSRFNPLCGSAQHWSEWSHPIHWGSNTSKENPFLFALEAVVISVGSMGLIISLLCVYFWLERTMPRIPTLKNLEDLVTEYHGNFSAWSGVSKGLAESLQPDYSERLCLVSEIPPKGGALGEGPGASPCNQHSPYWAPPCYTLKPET
Protocol: as §1, §2

- % binding to mutant gc chain/wildtype gc chain [1]: 68%
- % binding to mutant gc chain/wildtype gc chain [2]: 2%
- % binding to mutant gc chain/wildtype gc chain [3]: 4%
- % binding to mutant gc chain/wildtype gc chain [4]: 75%
- % binding to mutant gc chain/wildtype gc chain [5]: 0%
B1: CP.B8 monoclonal antibody (murine anti-human gc chain, hybridoma ATCC HB-12107) (antibody, V domains shown)
VH: LQESGPGLVAPSQSLSITCTVSGFSLTSYGVHWVRQPPGKGLEWLGVIWAGGSTNYNSALMSRLNINRDNSKSQIFLKMNSLQTDDTAIYYCAREGSTVDSMDYWGQGTTVT
VL: DIVMTQSHKFMSTSVGDSITITCKASQDVTTAVAWYQQKPGQSPKLLIYWASTRHTGVPDRFTGSGSGTDYTLTISSVQAEDLALYYCQQHYITPWTFGGGTKLEI
notes: Used unconjugated and biotin-conjugated; also called CP.B8 mAb; mAb CP.B8
